Test results published in patent US20090098076A1, “Method For the Production of a Keratin-Binding Effector Molecule” (BASF SE, priority 2005, published 2009).

Assays:
[1] = target: human hair keratin (human hair, cut into 5 mm sections) (human); test: quantitative hair binding test, anti-polyHis peroxidase conjugate, TMB; protein denatured (not renatured)
[2] = target: human skin keratin (human); test: quantitative skin binding test, loss relative to untreated skin after 10% strength SDS treatment
[3] = target: human skin keratin (human); test: quantitative skin binding test (human keratinocytes in microtiter plates), anti-His antibody, TMB; conditions: scale: absorption at 405 nm, standardized to the surface
[4] = target: human hair keratin (human hair, cut into 5 mm sections) (human); test: quantitative hair binding test, anti-polyHis peroxidase conjugate, TMB; protein renatured
[5] = target: human hair keratin (human hair, cut into 5 mm sections) (human); test: quantitative hair binding test, loss relative to untreated hair after 10% strength SDS treatment
[6] = target: human skin keratin (human); test: quantitative skin binding test (human keratinocytes in microtiter plates), anti-His antibody, TMB; after 10% strength SDS treatment; conditions: scale: absorption at 405 nm, standardized to the surface
[7] = target: human hair keratin (human hair, cut into 5 mm sections) (human); test: quantitative hair binding test, anti-polyHis peroxidase conjugate, TMB
hair (human) [8] = test: Quantitative binding to hair (KBD activity test hair, Example 10); conditions: for binding to hair, KBD-B compared with comparison protein: binding test on hair, result in words; for measured absorption values at 405 nm (quantitative KBD activity test hair): human hair, detection via His tag with antibody-peroxidase conjugate and TMB
Experimental: In this test, hair was firstly incubated with KBD and excess KBD was washed off. An antibody-peroxidase conjugate was then coupled via the His tag of the KBD. Nonbound antibody-peroxidase conjugate was washed off again. The bound anti body-peroxidase conjugate [Monoclonal AntipolyHistidine Peroxidase Conjugate, produced in mouse, lyophilized powder, Sigma] can convert a colorless substrate (TMB) into a colored product, which can be measured photometrically at 405 nm. The intensity of the absorption indicates the amount of bound KBD or comparison protein. The comparison protein chosen was, for example, YaaD from B. subtilis, which likewise had—as is necessary for this test—a His tag for the detection. Instead of the His tag, other specific antibodies conjugated with peroxidase can also be used.
(or at least 2 h at room temperature) with gentle swinging movements. • Centrifugation, removal of the supernatant • 3× washing with PBS […] • Incubation with 1 ml monoclonal mouse anti-tag (His6 or HA) antibodies with peroxidase:conjugate (1:2000 in PBS/0.05% Tween 20) [Monoclonal AntipolyHistidine Peroxidase Conjugate, produced in mouse, lyophilized powder, Sigma] for 2-4 h at room temperature, gentle swinging movement • 3× washing with PBS/0.05% Tween 20 • Addition of peroxidase substrate (1 ml/Eppendorf vessel) • Allow reaction to proceed until blue coloration (about 2 minutes). • Stop the reaction with […] of 2 M H2SO4. • The absorption is measured at 405 nm.
Peroxidase Substrate (Prepare Shortly Beforehand):
0.1 ml TMB solution (42 mM TMB in DMSO) +10 ml of substrate buffer (0.1 M sodium acetate pH 4.9) +14.7 μl H2O2 3% strength BSA=Bovine serum albumin PBS=Phosphate buffered salt solution
Tween 20=polyoxyethylene sorbitan monolaureate, n about 20
TMB=3,5,3′,5′-tetramethylbenzidine

hair (human) [9] = test: Quantitative binding to hair (Example 15); conditions: relative to untreated hair
Experimental: (§1) In order to investigate the binding strength of the KBD-D (SEQ ID No.:168) to skin and hair compared to the KBD-B (SEQ ID No.:166), a quantitative test was carried out. In this test firstly hair was incubated with KBD-B or KBD-D and excess KBD-D or -D was washed off. An antibody-peroxidase conjugate was then coupled via the His/tag of the KBD-B or -D. Nonbound antibody-peroxidase conjugate was washed off again. The bound antibody-peroxidase conjugate can convert a colorless substrate (TMB) into a colored product, which was measured photometrically at 405 nm. The intensity of the absorption indicates the amount of bound KBD-B or -D.
In order to characterize the hair binding of the KBD-D compared to the KBD-B, the following binding assay was carried out:
5 mg of hair (human) were cut into sections 5 mm in length and transferred to Eppendorf vessels (protein low-bind). • addition of 1 ml of ethanol for degreasing • centrifugation, removal of ethanol and washing of the hair with H2O • centrifugation, removal of the supernatant • addition of the keratin-binding domains to be tested (coupled to tag—e.g. His6, HA etc.) in 1 ml of PBS/0.05% Tween 20; incubation for 2 h at room temperature with gentle swinging movements • centrifugation, removal of the supernatant • 3× washing with PBS/0.05% Tween 20 • incubation with 1 ml monoclonal mouse anti-tag-(His6 or HA) antibodies with peroxidase conjugate (1:2000 in PBS/0.05% Tween 20) [Monoclonal AntipolyHistidine Peroxidase Conjugate, produced in mouse, lyophilized powder, Sigma] for 2-4 h at room temperature, gentle swinging movement • 3× washing with PBS/0.05% Tween 20 • addition of peroxidase substrate (1 ml/Eppendorf vessel) • allow reaction to proceed until blue coloration (90 seconds). • stop the reaction with 100 μl of 2 M H2SO4.
The absorption was measured at 405 nm
(§2) Peroxidase Substrate (Prepared Shortly Beforehand):
0.1 ml TMB solution (42 mM TMB in DMSO) +10 ml substrate buffer (0.1 M sodium acetate pH 4.9) +14.7 μl H2O2 3% strength BSA=bovine serum albumin PBS=phosphate buffered salt solution Tween 20=polyoxyethylene sorbitan monolaureate, n about 20 TMB=3,5,3′,5′-tetramethylbenzidine

human keratinocytes = test: Quantitative binding to skin (Example 15)
Experimental: as §1
The test for binding to skin was carried out with human keratinocytes in microtiter plates as follows. • 2× washing with PBS/0.05% Tween 20 • addition of 1 ml of 1% BSA in PBS and incubation for 1 h at room temperature, gentle swinging movements (900 rpm). • removal of the supernatant • addition of 100 μg of KBD in PBS with 0.03% Tween 20; incubation for 2 h at room temperature and gentle swinging movements (900 rpm). • removal of the supernatant • 3× washing with PBS/0.05% Tween 20 • incubation with 1 ml of monoclonal mouse anti-tag-His6 antibodies for 2-4 h at room temperature, gentle swinging movement (900 rpm) • 3× washing with PBS/0.05% Tween 20 • addition of peroxidase substrate (1 ml/Eppendorf vessels composition see below) reaction until a blue coloration (about 90 seconds). • reaction stopped with 100 μl of 2 M H2SO4. • the absorption was measured at 405 nm.
as §2
0.1 ml TMB solution (42 mM TMB in DMSO) +10 ml substrate buffer (0.1 M sodium acetate pH 4.9) +14.7 μl H2O2 3% strength

hair = test: Hair-binding activity of KBD-B-panthenol (Example 24a)
Experimental: In order to check whether KBD-B also binds with coupled panthenol to hair, a quantitative binding assay was carried out (see FIG. 6): In this test, hair was firstly incubated with KBD-B-panthenol and nonbound KBD-B-panthenol was washed off. A peroxidase was then coupled via the His tag of the KBD-B. Nonbound peroxidase was washed off again. The bound peroxidase can convert a colorless substrate (TMB) into a colored product which was measured photometrically at 405 nm. The intensity of the absorption indicates the amount of bonded KBD-B-panthenol. As comparison sample, KBD-B without panthenol was chosen.
Only above a mixing ratio of 1:4 does the hair binding activity decrease. Coupling to lysines or cysteines present in the protein structure which is no longer selective could be responsible for this, which could lead to an unfolding and thus poorer hair coupling of the protein.

B1: KBD-B (keratin-binding domain B of human desmoplakin), expressed by the vector pQE30-KBD-B in E. coli (SEQ ID No.: 166) (protein)
chain: MRGSHHHHHHGSACELEPHTGLLLLSVQKRSMSFQGIRQPVTVTELVDSGILRPSTVNELESGQISYDEVGERIKDFLQGSSCIAGIYNETTKQKLGIYEAMKIGLVRPGTALELLEAQAATGFIVDPVSNLRLPVEEAYKRGLVGIEFKEKLLSAERAVTGYNDPETGNIISLFQAMNKELIEKGHGIRLLEAQIATGGIIDPKESHRLPVDIAYKRGYFNEELSEILSDPSDDTKGFFDPNTEENLTYLQLKERCIKDEETGLCLLPLKEKKKQVQTSQKNTLRKRRVVIVDPETNKEMSVQEGVDLQPSLIS
- Absorption at 405 nm [1]: 0.254 A405 nm
- Relative absorption loss after 10% strength SDS treatment in % [2]: 80%
- Absorption at 405 nm [3]: 0.93
- Absorption at 405 nm [4]: 1.59 A405 nm
- Relative absorption loss after 10% strength SDS treatment in % [5]: 86%
- Absorption at 405 nm [6]: 0.185

B2: Comparison protein YaaD from B. subtilis (His-tagged) (protein, UniProt P37527 1-294, looked up)
chain: MAQTGTERVKRGMAEMQKGGVIMDVINAEQAKIAEEAGAVAVMALERVPADIRAAGGVARMADPTIVEEVMNAVSIPVMAKARIGHIVEARVLEAMGVDYIDESEVLTPADEEFHLNKNEYTVPFVCGCRDLGEATRRIAEGASMLRTKGEPGTGNIVEAVRHMRKVNAQVRKVVAMSEDELMTEAKNLGAPYELLLQIKKDGKLPVVNFAAGGVATPADAALMMQLGADGVFVGSGIFKSDNPAKFAKAIVEATTHFTDYKLIAELSKELGTAMKGIEISNLLPEQRMQERGW
- Absorption at 405 nm [7]: 0.088 A405 nm
- binding to hair, KBD-B compared with comparison protein (hair (human) [8]): significantly poorer binding
- measured absorption values at 405 nm (quantitative KBD activity test hair) (hair (human) [8]): A405 nm = 0.088

B3: KBD-B: keratin-binding domain B of human desmoplakin with N-terminal His tag, SEQ ID No.: 166, expressed in E. coli (protein, listed as Homo sapiens)
chain: MRGSHHHHHHGSACELEPHTGLLLLSVQKRSMSFQGIRQPVTVTELVDSGILRPSTVNELESGQISYDEVGERIKDFLQGSSCIAGIYNETTKQKLGIYEAMKIGLVRPGTALELLEAQAATGFIVDPVSNLRLPVEEAYKRGLVGIEFKEKLLSAERAVTGYNDPETGNIISLFQAMNKELIEKGHGIRLLEAQIATGGIIDPKESHRLPVDIAYKRGYFNEELSEILSDPSDDTKGFFDPNTEENLTYLQLKERCIKDEETGLCLLPLKEKKKQVQTSQKNTLRKRRVVIVDPETNKEMSVQEGVDLQPSLIS
- Relative absorption loss after 10% strength SDS treatment in %, hair (hair (human) [9]): 86%
- Relative absorption loss after 10% strength SDS treatment in %, skin (human keratinocytes; relative to untreated skin): 80%
- Absorption at 405 nm, binding to skin after 10% strength SDS treatment (human keratinocytes; values standardized to the surface, after 10% strength SDS treatment): 0.185
- Absorption at 405 nm, binding to skin (human keratinocytes; values standardized to the surface, no SDS treatment): 0.93
- binding to hair, KBD-B compared with comparison protein (hair (human) [8]): considerable superiority

B4: panthenol-coupled KBD-B: KBD-B (SEQ ID No.: 166) coupled via the maleimidocaproic acid linker with panthenol, Example 22 (conjugate, listed as Homo sapiens)
chain: MRGSHHHHHHGSACELEPHTGLLLLSVQKRSMSFQGIRQPVTVTELVDSGILRPSTVNELESGQISYDEVGERIKDFLQGSSCIAGIYNETTKQKLGIYEAMKIGLVRPGTALELLEAQAATGFIVDPVSNLRLPVEEAYKRGLVGIEFKEKLLSAERAVTGYNDPETGNIISLFQAMNKELIEKGHGIRLLEAQIATGGIIDPKESHRLPVDIAYKRGYFNEELSEILSDPSDDTKGFFDPNTEENLTYLQLKERCIKDEETGLCLLPLKEKKKQVQTSQKNTLRKRRVVIVDPETNKEMSVQEGVDLQPSLIS
modifications: maleimidocaproic linker-panthenol conjugate
- influence of coupling reaction temperature on hair binding activity (hair; FIG. 7): no decisive influence
- hair binding activity of the coupled protein (hair; above a KBD-B:panthenol mixing ratio of 1:4 (FIG. 7)): decrease
- hair binding activity of the coupled protein (hair; up to a KBD-B:panthenol mixing ratio of 1:2, compared with KBD-B without panthenol (FIG. 7)): remains virtually constant

B5: KBD-B denatured: KBD-B (SEQ ID No.: 166) from inclusion bodies, not renatured (protein, listed as Homo sapiens)
chain: MRGSHHHHHHGSACELEPHTGLLLLSVQKRSMSFQGIRQPVTVTELVDSGILRPSTVNELESGQISYDEVGERIKDFLQGSSCIAGIYNETTKQKLGIYEAMKIGLVRPGTALELLEAQAATGFIVDPVSNLRLPVEEAYKRGLVGIEFKEKLLSAERAVTGYNDPETGNIISLFQAMNKELIEKGHGIRLLEAQIATGGIIDPKESHRLPVDIAYKRGYFNEELSEILSDPSDDTKGFFDPNTEENLTYLQLKERCIKDEETGLCLLPLKEKKKQVQTSQKNTLRKRRVVIVDPETNKEMSVQEGVDLQPSLIS
modifications: denatured
- measured absorption values at 405 nm (quantitative KBD activity test hair) (hair (human) [8]): A405 nm = 0.254

B6: KBD-B renatured: KBD-B (SEQ ID No.: 166) renatured by dialysis (protein, listed as Homo sapiens)
chain: MRGSHHHHHHGSACELEPHTGLLLLSVQKRSMSFQGIRQPVTVTELVDSGILRPSTVNELESGQISYDEVGERIKDFLQGSSCIAGIYNETTKQKLGIYEAMKIGLVRPGTALELLEAQAATGFIVDPVSNLRLPVEEAYKRGLVGIEFKEKLLSAERAVTGYNDPETGNIISLFQAMNKELIEKGHGIRLLEAQIATGGIIDPKESHRLPVDIAYKRGYFNEELSEILSDPSDDTKGFFDPNTEENLTYLQLKERCIKDEETGLCLLPLKEKKKQVQTSQKNTLRKRRVVIVDPETNKEMSVQEGVDLQPSLIS
modifications: renatured
- measured absorption values at 405 nm (quantitative KBD activity test hair) (hair (human) [8]): A405 nm = 1.591
